# In article PMC8280646:
# Where two headings read alike, the source gives them in different places.
# Target: His-tagged hACE2 protein (human) (UniProt Q9BYF1)
# Test: SPR
# His-tagged hACE2 protein (human), sequence (Q9BYF1 18-740): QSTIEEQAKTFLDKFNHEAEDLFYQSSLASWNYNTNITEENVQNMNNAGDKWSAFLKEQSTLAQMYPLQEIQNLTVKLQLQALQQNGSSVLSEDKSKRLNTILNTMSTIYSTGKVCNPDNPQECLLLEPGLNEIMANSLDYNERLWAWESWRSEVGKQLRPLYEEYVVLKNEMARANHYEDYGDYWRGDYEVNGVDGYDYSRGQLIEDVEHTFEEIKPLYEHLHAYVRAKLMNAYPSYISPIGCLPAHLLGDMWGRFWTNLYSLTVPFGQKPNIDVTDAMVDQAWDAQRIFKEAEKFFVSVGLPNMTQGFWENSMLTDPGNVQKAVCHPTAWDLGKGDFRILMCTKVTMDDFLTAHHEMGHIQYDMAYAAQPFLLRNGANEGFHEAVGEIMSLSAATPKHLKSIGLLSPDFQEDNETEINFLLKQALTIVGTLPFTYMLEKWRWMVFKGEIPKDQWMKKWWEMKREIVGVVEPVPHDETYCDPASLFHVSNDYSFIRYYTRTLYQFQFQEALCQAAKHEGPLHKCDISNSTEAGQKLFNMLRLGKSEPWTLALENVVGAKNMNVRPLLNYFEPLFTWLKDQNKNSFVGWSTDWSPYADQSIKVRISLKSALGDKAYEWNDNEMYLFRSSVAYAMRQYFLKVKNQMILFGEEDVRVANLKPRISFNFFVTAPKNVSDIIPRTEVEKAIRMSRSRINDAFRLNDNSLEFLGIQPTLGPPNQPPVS
Substance,Kd,Kd (Fc fusion)
Human IFNα-RBD-Fc,12.3 nM,–
RBD,7.98 nM,–
RBD-Fc,11.5 nM,–
mouse IFNα-Pan-RBD-Fc fusion protein (I-P-R-F) (from UniProt P0DTC2 319-541),–,11 nM
